From patent US20100278829A1, “DUAL INHIBITION OF IMMUNOPHILIN/CYCLOPHILIN FAMILY MEMBERS AND EMMPRIN IMMUNOGLOBULIN RECEPTOR SUPERFAMILY MEMBERS” (priority 2009, published 2010)
Several values for one entry are separate records, joined by “and”; a condition that tells them apart may be missing. Equal entries are not always repeated. Values belong to the substance of their own block, whether it stands above or below them.

How the values were obtained:
[1] = system: Human primary skin keratinocytes (Hka); experiment: Cytokine stimulation of Hka, ECL and qRT-PCR readout; type: cell-based
Procedure: Cell stimulation. Primary T-cells, H9 cells and Th22 cells (1×10^6 cells/ml) were stimulated with PMA (1 ng/ml) and lonomycin (500 ng/ml) for 18 hrs at 37° C. HKa were stimulated with TNFα (1 ng/ml), TNFα (10 ng/ml)+PEG sTNF-RI (10 μg/ml), IL-1β (10 ng/ml), IL-1β ng/ml+IL-1ra 10 µg/ml, IL-1β ng /ml+TNFα 10 ng/ml and IL-32α or IL-32β for 24 hrs. Hka were stimulated with activated H9 and primary T-cells for 24 hrs at 37° C. PEGsTNF-RI and IL-1ra was obtained from Amgen (Thousand Oaks, Calif.).
ECL. A polyclonal antibody produced in rabbits against recombinant IL-32γ was used for ECL. IgG was prepared with Econo-Pac and then affinity purified through IL-32-immobilized agarose bead column of Affi-gel 15. An aliquot of the affinity purified anti-IL-32γ antibody was labeled with biotin and another aliquot with ruthenium according to the manufacturer's instructions (BioVeris, Gaithersburg, Md.). […] The liquid-phase ECL method was used to measure TNFα, IL-1β, IL-6, IL-8 and IL-32γ in human primary keratinocytes cell culture media and cell lysates in 0.5% Triton-X. The amount of ECL was determined by using an Origen Analyzer (BioVeris).
Quantitative real-time quantitative polymerase chain reaction (TaqMan) analysis (qRT-PCR). […] The amount of cDNA added to each reaction was held to a relatively narrow range, determined by the measurement of 18S RNA. […]

[2] = target: T1, CD147 Pro211 (Homo sapiens, UniProt P35613); experiment: ZZ-exchange NMR of CypA-mediated peptidyl-prolyl isomerization of CD147; type: biochemical; conditions: for kex (s−1), apparent catalytic exchange rate: [CD147^94-214]=0.5 mM
T1 construct: both containing 0.5 mM ^15N-CD147^94-214 at 25° C; made in house
T1 sequence (P35613 94-214 isoform P35613-2): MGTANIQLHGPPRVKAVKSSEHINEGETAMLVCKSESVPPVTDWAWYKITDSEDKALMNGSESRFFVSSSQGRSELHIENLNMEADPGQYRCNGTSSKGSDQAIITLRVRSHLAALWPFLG
Procedure: For ZZ-exchange experiments, the pulse scheme of Farrow et al. was employed with a selective adiabatic CHIRP pulse applied in the center of the mixing period for water suppression. (69) Two data sets were collected at 720 MHz on two samples with either 0.01 or 0.05 mM CypA and both containing 0.5 mM ^15N-CD147^94-214 at 25° C. and analyzed as previously described to calculate the apparent cis/trans exchange rate (kex). […] Equations (1a), (1b), (1c), and (1d) below were used to simultaneously fit the auto trans peak (Itt), the auto cis peak (Icc), the trans→cis exchange peak (Itc) and the cis→trans exchange peak (Ict), respectively, as a function of τm·Itt(0) and Icc(0) are the initial intensities of the trans and cis auto peaks, respectively, a11=R1t+ktc, a22=R1c+kct, a21=−ktc, and a12=−kct. Finally, under these conditions, ktc and kct can be recast as a function of their free Keq (Pcis/Ptrans=0.33/0.67), and thus, ktc=0.33 kex and kct=0.67 kex.
GraphPad Prism version 4.0 (GraphPad Software Inc., San Diego, Calif.) was used to simultaneously fit all resolvable peaks within CD147 residues 207-214.
ZZ-exchange was used to determine the apparent catalytic exchange rate of CypA-mediated peptidyl-prolyl isomerization of CD147 Pro211, providing a quantitative analysis of the active CypA/CD147 complex (FIG. 49). Specifically, two ZZ-exchange experiments were collected using identical concentrations of 0.5 mM 15N-CD147^94-214 but with two substoichiometric concentrations of the enzyme (i.e., catalytic concentrations) of 0.01 mM (FIG. 49A) and 0.05 mM (FIG. 49B) CypA. Under each condition, the apparent exchange rate (kex), which is the sum of the apparent cis-trans (i.e., kct) and […] (i.e., ktc) catalytic rates, was determined to quantify the rate enhancement of CypA-mediated catalysis (Table 1).

Substance: rhuIL-1β: recombinant human IL-1β (R&D Systems) used as inflammatory stimulus
induction of cytoplasmic IL-32γ in Hka ([1]; ECL, cell lysates, +48 hours culture): induced highly significant (P<0.001) levels

kct (cis→trans catalytic rate) ([2]; CypA:CD147 ratio of 1:10): 40 s⁻¹ | ktc (trans→cis catalytic rate) ([2]; CypA:CD147 ratio of 1:10): 20 s⁻¹ | kex (s−1), apparent catalytic exchange rate ([2]; [CypA]=0.01 mM, 25° C.): 9.6 ± 3.5 s⁻¹ | kex (s−1), apparent catalytic exchange rate ([2]; [CypA]=0.05 mM, 25° C.): 44.3 ± 8.1 s⁻¹ | kex extrapolated to the 1:1 / fully bound complex ([2]; extrapolated with the peptide Kd, 25° C.): ~6000 s⁻¹ and 4000 to 4800 s⁻¹ | kex (=kct+ktc) ([2]; substoichiometric CypA concentrations): ~60 s⁻¹
Substance: CypA: recombinant cyclophilin A, peptidyl-prolyl isomerase enzyme ligand of CD147

Substance: IL1ra: recombinant human IL-1 receptor antagonist (Amgen)
reversal of IL1β/TNFα-induced IL32γ gene expression in Hka ([1]; qRT-PCR, FIG. 36): reversed
